Reference: publication PMC4050729

Tests used:
[1] = target: ribosome nascent chain complex bearing the 3A7L signal sequence, nascent chain of 85 residues, Cm-labeled (UniProt P0ADZ0); assay: other fluorescence titration
[2] = target: ribosome nascent chain complex bearing the 3A7L signal sequence, nascent chain of 85 residues, Cm-labeled (UniProt P0ADZ0); assay: FRET or BRET

| EC50 [1] [nM] | fold weaker binding than wt SRP in the closed complex [2] [fold] | fold weaker binding than wt SRP in the early complex [2] [fold] | Substance |
| --- | --- | --- | --- |
| 39 |  |  | SecYEG translocon, cysteineless, solubilized in 0.02% DDM (from UniProt P0AGA2;P0AG96;P0AG99) (complex) |
|  | 6 | > 300 | SRP-FtsY complex formed with mutant SRP19/21E (early complex with GDP, closed complex with GppNHp) (from UniProt P0AGD7;P10121) |
